Experimental data published in patent publication US7491701 (BOYS TOWN NATIONAL RESEARCH HOSPITAL, dated 2009).
Where no end group is shown, it is not given here.

Key:
[1] = target: T1, HS9A_MOUSE, heat shock protein HSP-90 alpha (HSP 86) (mouse, UniProt P07901 2-733); experiment: peptide affinity matrix pull-down from mouse brain extract, Coomassie-stained SDS-PAGE (FIG. 1A)
T1 construct: Native protein captured from mouse brain extract; identified by mass spectrometry and western blot; also called p97; 97-kilodalton protein
Description: FIG. 1A Coomassie stained gel, FIG. 1B Western analysis of an identical gel with antibody to beta-COP. MW=molecular weight markers, Total=13,200 rpm supernatant loaded onto column matrix. E47=sample eluted from OTOF CTERM E47 column matrix. BC1=672 BC1, E48=OTOF CTERM E48, CC1=670 CC1. Brain extracts were made in a Potter-Elvehjem Teflon glass homogenizer using 1 ml/100 mg tissue of TNGD (50 mM TRIS 7.5, 75 mM NaCl, 10 mM EGTA, 2 mM EDTA) plus protease inhibitor 10 ul/ml (Sigma P8340). Protein extracts were absorbed to four Sulfolink-peptide affinity matrices and washed four times with TNGD. The column matrix was transferred to PCR tubes and made 1× with SDS buffer (Pierce Cat. No. 39001) and heated at 95° C. for 5 minutes. Samples were separated on a 4-20% polyacrylamide gel. E47 peptide corresponds to otoferlin exon 47 C-terminal. E48 peptide corresponds to otoferlin exon 48 C-terminal. BC1 and CC1 peptides are specific controls for E47 and E48 respectively where a di-serine replaces di-lysine. Antibody to beta-COP (Ocogene cat # PC175) was used at a dilution of 1:1500.

[2] = target: T2, recombinant human Hsp90α (Stressgen SPP-776, Lot No. B201401) (human, UniProt P07900 1-732); experiment: peptide affinity column, elution with 600 mM NaCl, silver-stained SDS-PAGE (no eluted protein was detected from the E47 column)
T2 construct: Bought recombinant protein; also called purified Hsp90α; purified human Hsp90α
Description: The columns was preabsorbed with 100 μl of 10% BSA for 30 minutes at 4° C. and mixed by rotation. The columns were then washed five times with 0.4 ml of TNGD. Four hundred (400) ng of recombinant human Hsp90α (Stressgen SPP-776, Lot No. B201401) in 100 μl of TNGD was added to each column for 30 minutes at 4° C. and mixed by rotation. The unabsorbed protein was removed by centrifugation. The columns were washed five times with 0.4 ml of TNGD, then eluted with 100 μl TNGD+600 mM NaCl. Samples were analyzed on a 4-20% SDS-PAGE gel followed by silver staining using a BIORAD Silver Stain Plus kit (No. 161-0449) as show in FIG. 5. […] The amount of protein added and eluted was determined by scanning the silver stained gel using a Alpha Imager 2200 gel imaging system. Approximately 10% of the protein corresponding to Hsp90 molecular weight was eluted with 600 mM NaCl+TGND from the E48 column while no eluted protein was detected with the same elution conditions from the E47 column.

Binder	binding result [1]	binding result [2]
CYSLPGYMVKKLLGA (not fully specified (residue 1); also: N-terminal Cys coupled to Sulfolink gel matrix (immobilised), also called E48 peptide; exon 48 (E48) otoferlin C-terminal peptide) [OTOF CTERM E48]	binds	
CYSLPGYLAKKILGA (not fully specified (residue 1); also: N-terminal Cys coupled to Sulfolink gel matrix (immobilised), also called E47 peptide; exon 47 (E47) otoferlin C-terminal peptide) [OTOF CTERM E47]	no binding	no binding
